Measured values taken from FireProtDB (doi:10.1006/jmbi.1995.0323).

B1: Subtilisin inhibitor, P01006 (parent)
chain: MRNTGAGPSPSVSRPPPSAAPLSGAALAAPGDAPSALYAPSALVLTVGKGVSATTAAPERAVTLTCAPGPSGTHPAAGSACADLAAVGGDLNALTRGEDVMCPMVYDPVLLTVDGVWQGKRVSYERVFSNECEMNAHGSSVFAF

Variants of: B1
Conditions: Streptomyces albogriseolus, Thermal, DSC, reversible: yes, structure 3SSI, whole UniProt chain shown
[1] = pH 3.2, 53.36 °C, glycine 25 mM
[2] = pH 7, 82.21 °C, Sodium phosphate 25 mM

## MRNTGAGPSPSVSRPPPSAAPLSGAALAAPGDAPSALYAPSALVLTVGKGVSATTAAPERAVTLTCAPGPSGTHPAAGSACADLAAVGGDLNALTRGEDVMCPMVYDPVLLTVDGVWQGKRVSYERVFSNECEGNAHGSSVFAF
pH 7, Sodium phosphate 25 mM
  Tm: 68.6 °C
  change of melting temperature, mutant - wild type (higher = more stable): -13.6 °C
  unfolding enthalpy (calorimetric): 191 kcal/mol
pH 9.5, glycine 25 mM
  Tm: 66.3 °C
  change of melting temperature, mutant - wild type (higher = more stable): -14.4 °C
  unfolding enthalpy (calorimetric): 187 kcal/mol

## MRNTGAGPSPSVSRPPPSAAPLSGAALAAPGDAPSALYAPSALVLTVGKGVSATTAAPERAVTLTCAPGPSGTHPAAGSACADLAAVGGDLNALTRGEDVMCPMVYDPVLLTVDGVWQGKRVSYERVFSNECEANAHGSSVFAF
[1]
  ddG of mutation (higher = less stable): 1.35 kcal/mol
  unfolding free energy: 4.2 kcal/mol
pH 3.2, glycine 25 mM
  Tm: 49.3 °C
  change of melting temperature, mutant - wild type (higher = more stable): -4.1 °C
  unfolding enthalpy (calorimetric): 113 kcal/mol
[2]
  ddG of mutation (higher = less stable): 2.32 kcal/mol
  unfolding free energy: 3.71 kcal/mol
pH 9.5, glycine 25 mM
  Tm: 75.5 °C
  change of melting temperature, mutant - wild type (higher = more stable): -5.18 °C
  unfolding enthalpy (calorimetric): 193 kcal/mol

## MRNTGAGPSPSVSRPPPSAAPLSGAALAAPGDAPSALYAPSALVLTVGKGVSATTAAPERAVTLTCAPGPSGTHPAAGSACADLAAVGGDLNALTRGEDVMCPMVYDPVLLTVDGVWQGKRVSYERVFSNECEVNAHGSSVFAF
[1]
  ddG of mutation (higher = less stable): 1.35 kcal/mol
  unfolding free energy: 4.2 kcal/mol
pH 3.2, glycine 25 mM
  Tm: 49.1 °C
  change of melting temperature, mutant - wild type (higher = more stable): -4.3 °C
  unfolding enthalpy (calorimetric): 107 kcal/mol
[2]
  ddG of mutation (higher = less stable): 1.84 kcal/mol
  unfolding free energy: 4.19 kcal/mol
pH 7, Sodium phosphate 25 mM
  Tm: 78.6 °C
  change of melting temperature, mutant - wild type (higher = more stable): -3.6 °C
  unfolding enthalpy (calorimetric): 179 kcal/mol
pH 9.5, 80.7 °C, glycine 25 mM
  ddG of mutation (higher = less stable): 2.22 kcal/mol
  unfolding free energy: 3.82 kcal/mol
pH 9.5, glycine 25 mM
  Tm: 76.4 °C
  change of melting temperature, mutant - wild type (higher = more stable): -4.33 °C
  unfolding enthalpy (calorimetric): 184 kcal/mol

## MRNTGAGPSPSVSRPPPSAAPLSGAALAAPGDAPSALYAPSALVLTVGKGVSATTAAPERAVTLTCAPGPSGTHPAAGSACADLAAVGGDLNALTRGEDVMCPMVYDPVLLTVDGVWQGKRVSYERVFSNECELNAHGSSVFAF
[1]
  ddG of mutation (higher = less stable): -0.77 kcal/mol
  unfolding free energy: 6.32 kcal/mol
[2]
  ddG of mutation (higher = less stable): -0.15 kcal/mol
  unfolding free energy: 6.18 kcal/mol
pH 7, Sodium phosphate 25 mM
  Tm: 82.5 °C
  change of melting temperature, mutant - wild type (higher = more stable): 0.3 °C
  unfolding enthalpy (calorimetric): 182 kcal/mol
pH 9.5, 80.7 °C, glycine 25 mM
  ddG of mutation (higher = less stable): 0.29 kcal/mol
  unfolding free energy: 5.75 kcal/mol
pH 9.5, glycine 25 mM
  Tm: 80.2 °C
  change of melting temperature, mutant - wild type (higher = more stable): -0.48 °C
  unfolding enthalpy (calorimetric): 178 kcal/mol

## MRNTGAGPSPSVSRPPPSAAPLSGAALAAPGDAPSALYAPSALVLTVGKGVSATTAAPERAVTLTCAPGPSGTHPAAGSACADLAAVGGDLNALTRGEDVMCPMVYDPVLLTVDGVWQGKRVSYERVFSNECEINAHGSSVFAF
pH 3.2, glycine 25 mM
  Tm: 46.1 °C
  change of melting temperature, mutant - wild type (higher = more stable): -7.3 °C
  unfolding enthalpy (calorimetric): 98.8 kcal/mol
[2]
  ddG of mutation (higher = less stable): 1.89 kcal/mol
  unfolding free energy: 4.14 kcal/mol
pH 7, Sodium phosphate 25 mM
  Tm: 78.3 °C
  change of melting temperature, mutant - wild type (higher = more stable): -3.9 °C
  unfolding enthalpy (calorimetric): 179 kcal/mol
pH 9.5, 80.7 °C, glycine 25 mM
  ddG of mutation (higher = less stable): 2.29 kcal/mol
  unfolding free energy: 3.75 kcal/mol
pH 9.5, glycine 25 mM
  Tm: 75.9 °C
  change of melting temperature, mutant - wild type (higher = more stable): -4.8 °C
  unfolding enthalpy (calorimetric): 175 kcal/mol
